From patent publication US20240301086A1 (APTEVO RESEARCH AND DEVELOPMENT, published 2024)
Each block holds one binder with its values, some of them ahead of it.

Tests used:
[1] = molecular target: T1, human CD3ε in the TCR/CD3 complex on Jurkat cells (human, UniProt P07766 23-207); assay: flow cytometry on Jurkat cells, PE goat anti-human IgG Fc secondary, MFI (median)
T1 construct: whole, on cells; On the cells it stands in the whole TCR/CD3 complex; also called CD3 (+) cells; CD3-expressing Jurkat cells
Procedure: (§1) Constructs were initially tested in CD3ε and PSMA binding assays on Jurkat and C4-2B cells. Cells were labelled at approximately 100,000 cells per well, in 96-well plates, with serial dilutions of bispecific constructs ranging in concentration from of 0.1 to 300 nM, for 30 min on ice. Primary label was followed by washes and incubation with PE-labeled minimum cross species reactive secondary antibody, goat anti-human IgG Fcγ, F(ab′)2 (Jackson Laboratory) for 30 minutes on ice. Washes and incubation were done in staining buffer (PBS with 0.2% BSA and 2 mM EDTA). Cells were collected using an BD™ LSRII or a BD FACSymphony™ flow cytometer (BD Biosciences) and analyzed by FlowJo flow cytometry analysis software. Median fluorescence intensity (MFI) of bound molecules on cells was determined after exclusion of doublets. Results were plotted and nonlinear regression analysis to determine EC50 values was performed using GraphPad Prism 7© graphing and statistics software.

[2] = molecular target: T2, Full-length Human PSMA (TSC435), on cells (human, UniProt Q04609 1-750); assay: flow cytometry, drawn table 'On- Cell Binding Parameters', row 'Human PSMA binding affinity'
T2 construct: also called CHOK1SV/huPSMA; PSMA on C4-2B, 22RV1, LNCaP, MDA-PCa-2b cells

[3] = molecular target: human Fcγ receptor IIIA, F176 variant (human, UniProt P08637 17-208); assay: SPR (Biacore T200), construct amine-coupled, Fcγ receptor as analyte
Procedure: (§2) The Fc region incorporated into anti-PSMA bispecific constructs contained mutations intended to reduce or abolish binding to common human and cynomolgus Fc gamma receptors. SPR experiments were conducted at 25° C. in HBS-EP+ with 0.2% BSA buffer on a Biacore T200 system to evaluate the impact of these mutations on binding. For these experiments, three flow cells of a CM5 sensor chip were immobilized with anti-PSMA bispecifics by standard amine coupling to a response level of ˜2000 RU. A blank immobilization was performed on flow cell #1 for purposes of background signal subtraction. Both human and cynomolgus monkey Fcγ receptors (purchased from R&D Systems) were diluted in HBS-EP+ with 0.2% BSA to 4-6 μM and then flowed as analytes at 30 μL/min for 120 seconds followed by a 240 second dissociation step. No regeneration step was required. Blank-subtracted sensorgrams were visually inspected for binding to each of the Fcγ receptor proteins. […] Attenuated binding to Fcγ receptors IIA (both polymorphic variants) and IIB/C was observed. PSMA01107 and PSMA01108 share the same Fc amino acid sequence and therefore equivalent Fcγ receptor binding behavior was expected.

human Fcγ receptor I = human Fcγ receptor I (human, UniProt P12314 16-288); assay: as above
Procedure: as §2

[4] = molecular target: human Fcγ receptor IIIA, V176 variant (human, UniProt P08637 17-208); assay: as above
Procedure: as §2

human Fcγ receptor IIIB = human Fcγ receptor IIIB (human, UniProt O75015 17-200); assay: as above
Procedure: as §2

[5] = molecular target: T1, human CD3ε in the TCR/CD3 complex on …; assay: flow cytometry on Jurkat cells, PE goat anti-human IgG Fc secondary, MFI (median); remark: listed apart in the source
Procedure: as §1

[6] = molecular target: T1, human CD3ε in the TCR/CD3 complex on …; assay: flow cytometry, drawn table 'On- Cell Binding Parameters', row 'Human CD3 binding affinity'
Procedure: as §1

[7] = molecular target: T3, cynomolgus Fcγ receptor III (cynomolgus monkey, UniProt Q8SPW2 17-208); assay: SPR (Biacore T200), construct amine-coupled, soluble cyno Fcγ receptor as analyte
T3 construct: Called recombinant, soluble; also called Cyno RIII
Procedure: as §2

[8] = molecular target: T2, Full-length Human PSMA (TSC435), on …; assay: flow cytometry on C4-2B cells, PE goat anti-human IgG Fc secondary, MFI (median)
Procedure: as §1

[9] = molecular target: T2, Full-length Human PSMA (TSC435), on …; assay: as above; remark: listed apart in the source
Procedure: as §1

[10] = molecular target: T4, Full-length cynomolgus monkey PSMA (TSC308), on cells (cynomolgus monkey, UniProt Q04609 1-750 (human entry)); assay: flow cytometry on CHO-CynoPSMA cells, Median (PE); drawn table row 'Cyno PSMA binding affinity'
T4 construct: also called cyno PSMA; CHOK1SV/cynoPSMA
T4 chain: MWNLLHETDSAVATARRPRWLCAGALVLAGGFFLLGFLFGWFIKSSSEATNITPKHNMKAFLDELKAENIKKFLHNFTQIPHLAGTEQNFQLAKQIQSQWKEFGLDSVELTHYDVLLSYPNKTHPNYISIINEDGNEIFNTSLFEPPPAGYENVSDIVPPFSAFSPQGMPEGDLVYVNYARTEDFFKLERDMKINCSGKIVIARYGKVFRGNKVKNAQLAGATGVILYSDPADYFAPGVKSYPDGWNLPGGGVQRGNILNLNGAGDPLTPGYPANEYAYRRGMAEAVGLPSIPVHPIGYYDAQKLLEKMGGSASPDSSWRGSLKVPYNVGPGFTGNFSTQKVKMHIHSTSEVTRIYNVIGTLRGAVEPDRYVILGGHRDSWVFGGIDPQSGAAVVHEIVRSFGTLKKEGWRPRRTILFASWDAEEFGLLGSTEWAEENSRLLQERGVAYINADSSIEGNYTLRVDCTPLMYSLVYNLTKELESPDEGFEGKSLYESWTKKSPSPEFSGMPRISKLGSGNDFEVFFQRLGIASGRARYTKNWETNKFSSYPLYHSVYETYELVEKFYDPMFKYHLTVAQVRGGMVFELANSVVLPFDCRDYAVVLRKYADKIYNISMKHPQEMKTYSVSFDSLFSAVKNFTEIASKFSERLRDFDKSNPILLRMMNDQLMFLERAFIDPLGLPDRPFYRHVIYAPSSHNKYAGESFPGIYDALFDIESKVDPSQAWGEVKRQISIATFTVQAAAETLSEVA

T1 sequence (P07766 23-207, one chain of several): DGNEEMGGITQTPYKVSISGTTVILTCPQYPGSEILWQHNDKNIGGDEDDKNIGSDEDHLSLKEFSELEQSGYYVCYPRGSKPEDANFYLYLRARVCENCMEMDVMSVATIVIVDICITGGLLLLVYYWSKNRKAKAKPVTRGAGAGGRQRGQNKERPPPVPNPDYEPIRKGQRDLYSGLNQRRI
T3 sequence (Q8SPW2 17-208): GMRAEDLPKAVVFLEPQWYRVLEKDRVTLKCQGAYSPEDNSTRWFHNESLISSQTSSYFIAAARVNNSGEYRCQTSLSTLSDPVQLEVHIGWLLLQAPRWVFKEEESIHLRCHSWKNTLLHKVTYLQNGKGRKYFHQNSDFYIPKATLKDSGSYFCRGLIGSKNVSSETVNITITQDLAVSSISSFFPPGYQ
Chain of human Fcγ receptor IIIB (O75015 17-200): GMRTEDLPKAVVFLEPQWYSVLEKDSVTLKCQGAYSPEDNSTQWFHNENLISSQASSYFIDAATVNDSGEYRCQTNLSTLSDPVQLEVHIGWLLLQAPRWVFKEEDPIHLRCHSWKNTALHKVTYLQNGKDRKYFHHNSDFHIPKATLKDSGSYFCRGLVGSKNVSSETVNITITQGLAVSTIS
Chain of human Fcγ receptor I (P12314 16-288): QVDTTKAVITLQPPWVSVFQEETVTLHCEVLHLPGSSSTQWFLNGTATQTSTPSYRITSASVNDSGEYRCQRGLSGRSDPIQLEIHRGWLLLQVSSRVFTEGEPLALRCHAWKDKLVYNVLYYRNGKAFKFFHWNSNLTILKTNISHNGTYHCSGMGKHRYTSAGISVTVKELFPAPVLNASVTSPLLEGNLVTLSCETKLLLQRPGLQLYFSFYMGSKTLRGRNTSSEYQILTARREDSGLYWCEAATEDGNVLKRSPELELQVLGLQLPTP
Chain of human Fcγ receptor IIIA, V176 variant (P08637 other isoform, or with tags, fused parts or gaps mutant): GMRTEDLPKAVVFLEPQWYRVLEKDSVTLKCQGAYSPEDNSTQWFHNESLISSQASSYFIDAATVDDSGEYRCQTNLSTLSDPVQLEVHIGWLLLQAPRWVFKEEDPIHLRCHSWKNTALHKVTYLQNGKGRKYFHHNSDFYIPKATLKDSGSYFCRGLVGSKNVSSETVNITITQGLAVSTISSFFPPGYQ
Chain of human Fcγ receptor IIIA, F176 variant (P08637 17-208, change not shown): as the sequence (P08637 other isoform, or with tags, fused parts or gaps mutant) above, with V160F counted along it

EC50 [1]: 2 nM | EC50 [2]: 10 nM | Max [2]: 1400 | binding result [3]: no binding (tested: 4-6 µM) | binding result (human Fcγ receptor I): no binding (tested: 4-6 µM) | binding result [4]: no binding (tested: 4-6 µM) | binding result (human Fcγ receptor IIIB): no binding (tested: 4-6 µM) | EC50 [5]: 2 nM | EC50 [6]: 2 nM | Max [6]: 15000 | binding result [7]: no binding (tested: 4-6 µM) | EC50 [8]: 7 nM | EC50 [9]: 7 nM | EC50 [10]: 20 nM | Max [10]: 6000
B1: TSC266 Anti PSMA scFv x Anti CD3 scFv ADAPTIR (bispecific antibody)
chain: DIQMTQSPSAMSASVGDRVTITCRASKSISKYLAWFQQKPGKVPKLRIHSGSTLQSGVPSRFSGSGSGTEFTLTISSLQPEDFATYYCQQHIEYPWTFGQGTKVEIKRGGGGSGGGGSGGGGSQVQLVQSGAEVKKPGASVKVSCKASGYTFTDYYMHWVRQAPGQGLEWMGYFNPYNDYTRYAQKFQGRVTMTRDTSISTAYMELSSLRSDDTAVYYCARSDGYYDAMDYWGQGTTVTVSSSEPKSSDKTHTCPPCPAPEAAGAPSVFLFPPKPKDTLMISRTPEVTCVVVDVSHEDPEVKFNWYVDGVEVHNAKTKPREEQYNSTYRVVSVLTVLHQDWLNGKAYACAVSNKALPAPIEKTISKAKGQPREPQVYTLPPSRDELTKNQVSLTCLVKGFYPSDIAVEWESNGQPENNYKTTPPVLDSDGSFFLYSKLTVDKSRWQQGNVFSCSVMHEALHNHYTQKSLSLSPGQRHNNSSLNTGTQMAGHSPNSQVQLVESGGGVVQPGRSLRLSCKASGYTFTRSTMHWVRQAPGQGLEWIGYINPSSAYTNYNQKFKDRFTISADKSKSTAFLQMDSLRPEDTGVYFCARPQVHYDYNGFPYWGQGTPVTVSSGGGGSGGGGSGGGGSAQDIQMTQSPSSLSASVGDRVTMTCSASSSVSYMNWYQQKPGKAPKRWIYDSSKLASGVPARFSGSGSGTDYTLTISSLQPEDFATYYCQQWSRNPPTFGGGTKLQITSSS
notes: The anti-PSMA domain is that of PSMA01012 and the anti-CD3 domain is DRA222; also called unoptimized parent construct; TSC266 control (PSMA × CD3 bispecific protein)

EC50 [1]: > 200 nM | EC50 [2]: 1 nM | Max [2]: 2400 | binding result [3]: no binding (tested: 4-6 µM) | binding result (human Fcγ receptor I): no binding (tested: 4-6 µM) | binding result [4]: no binding (tested: 4-6 µM) | binding result (human Fcγ receptor IIIB): no binding (tested: 4-6 µM) | EC50 [5]: > 208 nM | EC50 [6]: > 200 nM | Max [6]: 2000 | binding result [7]: no binding (tested: 4-6 µM) | EC50 [8]: 1 nM | EC50 [9]: 1 nM | EC50 [10]: 5 nM | Max [10]: 22000
B2: PSMA01107 Anti-PSMA scFv x Fc x linker x Anti CD3 scFv; Anti PSMA scFv x Fc (bispecific antibody)
chain 1: QVQLVQSGAEVKKPGASVKVSCKASGYTFTDYYMHWVRQAPGQGLEWMGYFNPYNDYTRYAQKFQGRVTMTRDTSTSTVYMELSSLRSEDTAVYYCARSDGYYDAMDYWGQGTTVTVSSGGGGSGGGGSGGGGSGGGGSDIQMTQSPSSLSASVGDRVTITCRASKSISKYLAWYQQKPGKAPKLLIHSGSSLESGVPSRFSGSGSGTEFTLTISSLQPDDFATYYCQQHIEYPWTFGQGTKVEIKEPKSSDKTHTCPPCPAPPAAAPSVFLFPPKPKDTLMISRTPEVTCVVVDVSHEDPEVKFNWYVDGVEVHNAKTKPREEQYNSTYRVVSVLTVLHQDWLNGKEYKCAVSNKALPAPIEKTISKAKGQPREPQVYTLPPSRDELTKNQVSLWCLVKGFYPSDIAVEWESNGQPENNYKTTPPVLDSDGSFFLYSKLTVDKSRWQQGNVFSCSVMHEALHNHYTQKSLSLSPGGGGSPSQVQLVQSGAEVKKPGASVKVSCKASGYTFTRSTMHWVRQAPGQGLEWIGYINPSSAYTNYAQKFQGRVTLTADKSTSTAYMELSSLRSEDTAVYYCASPQVHYDYNGFPYWGQGTLVTVSSGGGGSGGGGSGGGGSGGGGSDIQMTQSPSSLSASVGDRVTITCRASSSVSYMNWYQQKPGKAPKRWIYDSSKLASGVPSRFSGSGSGTDFTLTISSLQPEDFATYYCQQWSRNPPTFGQGTKVEIKRS
chain 2: QVQLVQSGAEVKKPGASVKVSCKASGYTFTDYYMHWVRQAPGQGLEWMGYFNPYNDYTRYAQKFQGRVTMTRDTSTSTVYMELSSLRSEDTAVYYCARSDGYYDAMDYWGQGTTVTVSSGGGGSGGGGSGGGGSGGGGSDIQMTQSPSSLSASVGDRVTITCRASKSISKYLAWYQQKPGKAPKLLIHSGSSLESGVPSRFSGSGSGTEFTLTISSLQPDDFATYYCQQHIEYPWTFGQGTKVEIKEPKSSDKTHTCPPCPAPPAAAPSVFLFPPKPKDTLMISRTPEVTCVVVDVSHEDPEVKFNWYVDGVEVHNAKTKPREEQYNSTYRVVSVLTVLHQDWLNGKEYKCAVSNKALPAPIEKTISKAKGQPREPQVYTLPPSRDELTKNQVSLSCAVKGFYPSDIAVEWESNGQPENNYKTTPPVLDSDGSFFLVSKLTVDKSRWQQGNVFSCSVMHEALHNHYTQKSLSLSPG
notes: Heterodimer, bivalent for PSMA and monovalent for CD3 (VH-VL scFv at the C-terminus); also called PSMA1107
